Earlier results, collected in PMC3310959.

Biological target: E-cadherin (Mus musculus) (UniProt P09803)

For E-cadherin (from UniProt P09803), the Kd is listed as 97 µM.
